Here are results for 6 substances from patent publication EP3875478A1.

Assay [1] has as its target CD64+V172-28z CAR (CD64 with insertion of Valine at 172 - TMCD8 - CD28 - truncated CD3z) on primary T lymphocytes (human). Briefly: cell-based or functional assay.
Assay [2] has as its target CD64K130S CAR (4-1BB-CD3z) on primary T lymphocytes (human). Briefly: cell-based or functional assay.
The target of assay [3] is CD64wt-Bbz CAR (native CD64 - TMCD8 - 4-1BB - CD3z) on primary T lymphocytes (human). Briefly: cell-based or functional assay.
Assay [4] addresses CD64K130Y CAR (CD64 K130Y - TMCD8 - 4-1BB - full CD3z) on primary T lymphocytes (human). Briefly: cell-based or functional assay.
The target in assay [5] is CD64R175A CAR (CD64 R175A - TMCD8 - CD28 - CD3z) on primary T lymphocytes (human). Briefly: cell-based or functional assay.
Assay [6] concerns the target human IgG1 (human). Briefly: Biacore (SPR), format not described. On the technique in general: SPR reads the build-up and loss of mass on a sensor chip optically.

For the substance “anti-CD20 antibody (Rituximab clone), IgG1”, in assay [1], the % inhibition 20%HS vs 10%FBS (24h) was 20.4%; the % inhibition 20%HS vs 10%FBS (3 days) turned out to be 40.2%; the % inhibition 20%HS vs 10%FBS (7 days) was found to be 51.7%; the % inhibition (72h, 20% human serum vs 10% FBS) stood at 31.5%. In assay [1], this substance came in with a gamma IFN secretion in proliferation assay, 10% FBS, mean (3 days) of 438000; a gamma IFN secretion in proliferation assay, 10% FBS, mean (7 days) of 753000; a gamma IFN secretion in proliferation assay, 20% human serum, mean (3 days) of 262000; a gamma IFN secretion in proliferation assay, 20% human serum, mean (7 days) of 364000. In assay [1], this substance yielded a gamma interferon secretion, 24h co-culture with Raji, 10% FBS, mean of 11500; a gamma interferon secretion, 24h co-culture with Raji, 20% human serum, mean of 9130; a gamma interferon secretion, 72h co-culture with Raji, 10% FBS, mean of 399000; a gamma interferon secretion, 72h co-culture with Raji, 20% human serum, mean of 273000. The substance further registered an inhibition of proliferation by human serum in assay [1] of 38%. In assay [2], this substance registered a cytokine secretion, 24h co-culture with Raji, antibody 2 ug/mL, 2,5% Human Serum, mean of 5350; a cytokine secretion, 24h co-culture with Raji, antibody 2 ug/mL, 10% FBS, mean of 5410; a cytokine secretion, 24h co-culture with Raji, antibody 2 ug/mL, 20% Human Serum, mean of 2730; a percent inhibition 20%HS vs 10%FBS of 49.5%. Moreover, in assay [3], the % inhibition 20%HS vs 10%FBS (24h) is 90.3%; the % inhibition 20%HS vs 10%FBS (3 days) came to 91.7%; the % inhibition 20%HS vs 10%FBS (7 days) came out at 69.5%; the % inhibition (72h, 20% human serum vs 10% FBS) turned out to be 92.8%. In assay [3], this substance registered a gamma IFN secretion in proliferation assay, 10% FBS, mean (3 days) of 203000; a gamma IFN secretion in proliferation assay, 10% FBS, mean (7 days) of 107000; a gamma IFN secretion in proliferation assay, 20% human serum, mean (3 days) of 16900; a gamma IFN secretion in proliferation assay, 20% human serum, mean (7 days) of 32600. In addition, in assay [3], the gamma interferon secretion, 24h co-culture with Raji, 10% FBS, mean turned out to be 12000; the gamma interferon secretion, 24h co-culture with Raji, 20% human serum, mean was 1170; the gamma interferon secretion, 72h co-culture with Raji, 10% FBS, mean stood at 123000; the gamma interferon secretion, 72h co-culture with Raji, 20% human serum, mean turned out to be 8810. Moreover, in assay [3], the inhibition of proliferation by human serum was 6 fold.

In assay [4], anti-CD22 antibody (m971 clone), IgG1 gave a cytokine secretion, 24h co-culture with Raji, antibody 2 ug/mL, 10% FBS, mean of 20900; a cytokine secretion, 24h co-culture with Raji, antibody 2 ug/mL, 20% Human Serum, mean of 9580; a percent inhibition 20%HS vs 10%FBS of 54.2%. In addition, in assay [5], the cytokine secretion, 24h co-culture with Raji, antibody 2 ug/mL, 10% FBS, mean was 55900; the cytokine secretion, 24h co-culture with Raji, antibody 2 ug/mL, 20% Human Serum, mean was determined as 27000; the percent inhibition 20%HS vs 10%FBS was found to be 51.6%.

“anti-CD20 antibody IgG1 mutated at Leucine 235 to Alanine”: in assay [4], the cytokine secretion, 24h co-culture with Raji, antibody 2 ug/mL, 2,5% Human Serum, mean came out at 2720; the cytokine secretion, 24h co-culture with Raji, antibody 2 ug/mL, 10% FBS, mean came to 6270; the cytokine secretion, 24h co-culture with Raji, antibody 2 ug/mL, 20% Human Serum, mean came out at 292; the percent inhibition 20%HS vs 10%FBS came to 95.3%.

In general, Kd refers to the concentration at which binding is half-saturated. Low readings indicate tighter binding, high ones weaker binding. In the case of “CD64 with K130S, as measured by Biacore (receptor)”, in assay [6], the dissociation constant Kd is 74 nM and the fold reduction of the affinity of CD64 for IgG1 worked out at 7 fold.

Substance “native CD64 (human high affinity Fc gamma receptor alpha chain), as measured by Biacore” registered a dissociation constant Kd in assay [6] of 10 nM.

In assay [6], “CD64 with K130H mutation, as measured by Biacore (receptor)” came in with a dissociation constant Kd of 53 nM and a fold lower affinity for IgG1 than native CD64 of 5 fold.
